Numbering of substitutions follows the chain as printed.

The record followed here is patent publication US20210380703A1 (RIGEL PHARMACEUTICALS, published 2021).

B1: 370_H03 (antibody, V domains shown)
VH: EVQLLESGGGLVQPGGSLRLSCAASGFTFDSYSMNWVRQAPGKGLEWVAGINYNSGYKGYADSVKGRFTISRDNSKNTLYLQMNSLRAEDTAVYYCARSATWHDTHLDYWGQGTLVTVSS
VL: DIQMTQSPSSLSASVGDRVTITCRASQSILTYLNWYQQKPGKAPKLLIYAATSLASGVPSRFSGSGSGTDFTLTISSLQPEDFATYYCQQSYDTPLTFGGGTKVEIK
notes: VH/VL only
B2: 374_C05 (antibody, V domains shown)
VH: B1 VH with G59S
VL: B1 VL with L30I, T31R, L47V, L54R, T94N
notes: VH/VL only
B3: 371_D03 (antibody, V domains shown)
VH: B1 VH with S33G, G50N, S55G, K58T, G59S, H106A
VL: B1 VL with L33V, L47V, D93N
notes: VH/VL only
B4: 374_E05 (antibody, V domains shown)
VH: B1 VH with D30S, S55G, K58T, G59S, T101N, H106A
VL: B1 VL with T31S, Y32F, L33V, L47V, L54R, D93N, T94L
notes: VH/VL only
B5: 373_E02 (antibody, V domains shown)
VH: B1 VH with S33G, N35H, A49S, S55G
VL: not shown
notes: VH/VL only
B6: 371_F05 (antibody, V domains shown)
VH: B1 VH with D30S, G59S
VL: B1 VL with T31S, L54R, A55H, D93E, T94N
notes: VH/VL only
B7: 372_F07 (antibody, V domains shown)
VH: B1 VH with S31D
VL: B1 VL with L47V, L54R, D93E, T94L
notes: VH/VL only
B8: 373_B11 (antibody, V domains shown)
VH: B1 VH with D30S, G50N
VL: B1 VL with T31S, L54R, T94N
notes: VH/VL only
B9: 374_C11 (antibody, V domains shown)
VH: B1 VH with D30S
VL: B1 VL with L54R, D93E, T94S
notes: VH/VL only
B10: 374_E02 (antibody, V domains shown)
VH: B1 VH with D30S, A49S, S55G, K58T, G59S, T101N, H106A
VL: B1 VL with T31S, T94L
notes: VH/VL only
B11: 373_H06 (antibody, V domains shown)
VH: B1 VH with D30S, S33G, N35H, S55G, K58T, G59S
VL: B1 VL with L30I, T31S, L33V, T94L
notes: VH/VL only
B12: 374_C04 (antibody, V domains shown)
VH: B1 VH with D30S, G59S
VL: B1 VL with T52S, A55Q, D93E, T94L
notes: VH/VL only
B13: 373_F03 (antibody, V domains shown)
VH: B1 VH with G50N, K58T
VL: B1 VL with L33V, L54R, A55H, T94S
notes: VH/VL only
B14: 373_B08 (antibody, V domains shown)
VH: B1 VH with G50N
VL: B1 VL with L47V, D93E, T94N
notes: VH/VL only
B15: 371_G03 (antibody, V domains shown)
VH: B1 VH with D30S, S33G, G50N, S55G
VL: B1 VL with L30V, L33V, L47V, D93N, T94L
notes: VH/VL only
B16: 371_C09 (antibody, V domains shown)
VH: B1 VH with A49S, S55G, G59S
VL: B1 VL with L33V, T52S, A55Q, T94N
notes: VH/VL only
B17: 373_H10 (antibody, V domains shown)
VH: B1 VH with D30S, S55G, K58T
VL: B1 VL with T31S, L33V, L54R, D93S, T94L
notes: VH/VL only
B18: 374_B09 (antibody, V domains shown)
VH: B1 VH with D30S, A49S, S55G, G59S
VL: B1 VL with L30V, T31R, L47V, D93E, T94L
notes: VH/VL only
B19: 374_A11 (antibody, V domains shown)
VH: B1 VH with D30S, S31D, G50N
VL: B1 VL with T31S, L33V, L47V, L54R, D93S, T94S
notes: VH/VL only
B20: 372_D04 (antibody, V domains shown)
VH: B1 VH with D30S, G50N, K58T
VL: B1 VL with A55H, T94L
notes: VH/VL only
B21: 374_D02 (antibody, V domains shown)
VH: B1 VH with K58T, G59S
VL: B1 VL with L30S, L33V, A51V, T94S
notes: VH/VL only
B22: 373_B03 (antibody, V domains shown)
VH: B1 VH with D30S, G59S
VL: B1 VL with L47V, T94N
notes: VH/VL only
B23: 374_C08 (antibody, V domains shown)
VH: B1 VH with S33G, A49S, G59S, H106A
VL: B1 VL with T31S, L33V, A51V, L54R, T94S
notes: VH/VL only
B24: 374_C02 (antibody, V domains shown)
VH: B1 VH with A49S, S55G, K58T
VL: B1 VL with T31S, L54R, A55H, T94S
notes: VH/VL only
B25: 373_E06 (antibody, V domains shown)
VH: B1 VH with G59S
VL: B1 VL with T31R, A55H, T94N
notes: VH/VL only
B26: 373_C09 (antibody, V domains shown)
VH: B1 VH with G59S
VL: B1 VL with L47V, L54R, D93E, T94L
notes: VH/VL only
B27: 371_H01 (antibody, V domains shown)
VH: B1 VH with S55G, K58T
VL: not shown
notes: VH/VL only
B28: 373_E03 (antibody, V domains shown)
VH: B1 VH with S33G, A49S, G50N, S55G, K58T, H106A
VL: B1 VL with T31S, L33V, L47V, L54R, T94L
notes: VH/VL only
B29: 373_G05 (antibody, V domains shown)
VH: B1 VH with D30S, S55G, K58T, G59S
VL: B1 VL with T31S, D93E, T94L
notes: VH/VL only
B30: 374_D12 (antibody, V domains shown)
VH: B1 VH with A49S, S55G, K58T
VL: B1 VL with L30V, T31S, L33V, L47V, L54R, T94L
notes: VH/VL only
B31: 373_E04 (antibody, V domains shown)
VH: B1 VH with S55G, K58T, G59S
VL: B1 VL with L33V, L54R, D93N, T94S
notes: VH/VL only
Further: test concentration or dose not given here.

Chain of mouse ACVR2A (P27038 20-135 limits assumed): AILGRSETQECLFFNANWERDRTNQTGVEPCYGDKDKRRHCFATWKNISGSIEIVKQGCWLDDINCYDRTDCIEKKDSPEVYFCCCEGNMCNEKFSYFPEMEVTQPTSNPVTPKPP
Chain of human ACVR2A (P27037 20-135 limits assumed): as the sequence (P27038 20-135 limits assumed) above, with R20K, I73V counted along it

The target of one test is human ACVR2A (human, UniProt P27037 20-135, limits assumed). The test is described as follows: ELISA. An outline of the steps:
(§1)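 ELISA measured binding of ACVR2A-specific monoclonal antibodies to human and mouse ACVR2A. Biotinylated goat anti-human kappa light chain served as positive control and human Fc as negative control.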
(ELISA stands for enzyme-linked immunosorbent assay.)
In turn, B1 displayed an optical density of 3.43 OD.

B2 registered an optical density of 3.7 OD.

B3 gave an optical density of 1.54 OD.

With B4, the optical density was determined as 3.56 OD.

B5 displayed an optical density of 3.61 OD.

With B6, the optical density is 2.89 OD.

In turn, B7 gave an optical density of 3.25 OD.

Molecule B8 registered an optical density of 3.72 OD.

As for B9, the optical density was determined as 3.64 OD.

In turn, B10 registered an optical density of 3.23 OD.

For the molecule B11, the optical density is 3 OD.

As for B12, the optical density stood at 3.74 OD.

With B13, the optical density is 3.65 OD.

Take B14: the optical density came to 3.7 OD.

B15: the optical density was found to be 3.12 OD.

In the case of B16, the optical density came to 3.37 OD.

Molecule B17 returned an optical density of 3.24 OD.

As for B18, the optical density was found to be 3.62 OD.

As to B19, the optical density came out at 3.65 OD.

B20 had an optical density of 3.4 OD.

Molecule B21 yielded an optical density of 3.06 OD.

For B22, the optical density worked out at 3.64 OD.

B23 gave an optical density of 3.29 OD.

As for B24, the optical density is 3.68 OD.

Take B25: the optical density came to 3.71 OD.

B26 yielded an optical density of 3.64 OD.

In turn, B27 displayed an optical density of 3.03 OD.

B28 yielded an optical density of 3.46 OD.

In turn, B29 returned an optical density of 3.61 OD.

For the molecule B30, the optical density is 3.55 OD.

In turn, B31 had an optical density of 3.56 OD.

The next test concerns the target mouse ACVR2A (mouse, UniProt P27038 20-135, limits assumed). The test is described as follows: ELISA. An outline of the steps: as §1
Consider B1, for which the optical density came out at 3.56 OD.

As to B2, the optical density was 3.69 OD.

For the molecule B3, the optical density turned out to be 1.83 OD.

Regarding B4, the optical density is 3.57 OD.

B5 had an optical density of 3.64 OD.

In turn, B6 registered an optical density of 3.15 OD.

Take B7: the optical density turned out to be 3.24 OD.

Molecule B8 came in with an optical density of 3.65 OD.

For the molecule B9, the optical density stood at 3.59 OD.

For B10, the optical density is 3.33 OD.

B11 came in with an optical density of 3.15 OD.

On to B12, for which the optical density was found to be 3.74 OD.

Take B13: the optical density came out at 3.6 OD.

The molecule B14 displayed an optical density of 3.66 OD.

In turn, B15 yielded an optical density of 3.27 OD.

For B16, the optical density stood at 3.29 OD.

On to B17, for which the optical density stood at 3.25 OD.

The molecule B18 yielded an optical density of 3.65 OD.

Consider B19, for which the optical density amounted to 3.72 OD.

B20 returned an optical density of 3.41 OD.

With B21, the optical density stood at 3.2 OD.

Consider B22, for which the optical density amounted to 3.62 OD.

Take B23: the optical density was found to be 3.42 OD.

For B24, the optical density was determined as 3.64 OD.

As to B25, the optical density was 3.64 OD.

B26 yielded an optical density of 3.6 OD.

In the case of B27, the optical density worked out at 3 OD.

B28 gave an optical density of 3.46 OD.

B29 returned an optical density of 3.62 OD.

Regarding B30, the optical density stood at 3.28 OD.

Molecule B31 registered an optical density of 3.55 OD.

The target of the next test is T1, biotinylated goat anti-human kappa light chain.
T1 construct: Positive control of the ELISA
The test is described as follows: ELISA; positive control. An outline of the steps: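 mAb binding by ELISA; antigens: hu ACVR2A, mu ACVR2A; pos ctrl biotinylated goat anti-hu kappa LC; neg ctrl hu Fc.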
Regarding B1, the optical density came out at 3.56 OD.

As for B2, the optical density was found to be 3.18 OD.

In the case of B3, the optical density was found to be 3.57 OD.

As to B4, the optical density worked out at 3.18 OD.

As to B5, the optical density was 2.92 OD.

For the molecule B6, the optical density is 3.33 OD.

B7 returned an optical density of 3.4 OD.

Turning to B8, the optical density worked out at 3.22 OD.

The molecule B9 gave an optical density of 3.21 OD.

Turning to B10, the optical density was found to be 3.18 OD.

B11 showed an optical density of 3.3 OD.

Consider B12, for which the optical density was 3.17 OD.

As to B13, the optical density was found to be 3.21 OD.

Take B14: the optical density amounted to 3.22 OD.

B15 returned an optical density of 3.59 OD.

With B16, the optical density came to 3.39 OD.

Turning to B17, the optical density was 3.19 OD.

B18: the optical density was found to be 3.19 OD.

B19: the optical density was 2.81 OD.

Molecule B20 showed an optical density of 3.38 OD.

The molecule B21 registered an optical density of 2.99 OD.

Molecule B22 came in with an optical density of 3.16 OD.

For B23, the optical density is 3.18 OD.

B24 came in with an optical density of 3.06 OD.

B25 showed an optical density of 3.22 OD.

In the case of B26, the optical density is 3.22 OD.

In the case of B27, the optical density worked out at 3.69 OD.

B28 returned an optical density of 3.25 OD.

B29: the optical density is 3.22 OD.

B30 returned an optical density of 3.09 OD.

Take B31: the optical density was 3.3 OD.
